From PMC7868722

B1: 3Leu (structured_DNA)
DNA: GGTTGGTGTGGTTGG
modifications: T3: N3-carboxymethyl-dT amide with L-leucine
B2: TBA (HD1) (structured_DNA)
DNA: GGTTGGTGTGGTTGG
B3: 3Nic (structured_DNA)
DNA: GGTTGGTGTGGTTGG
modifications: T3: N3-aminoalkyl-dT nicotinoyl amide
B4: 3Ser (structured_DNA)
DNA: GGTTGGTGTGGTTGG
modifications: T3: N3-carboxymethyl-dT amide with L-serine
B5: 12G (structured_DNA)
DNA: GGTTGGTGTGGTTGG
modifications: T12: N3-propargyl-dT clicked to 1-beta-D-glucopyranosyl azide (printed glycopyranosyl)
B6: 12L (structured_DNA)
DNA: GGTTGGTGTGGTTGG
modifications: T12: N3-propargyl-dT clicked to 1-beta-D-lactopyranosyl azide
B7: 3L (structured_DNA)
DNA: GGTTGGTGTGGTTGG
modifications: T3: N3-propargyl-dT clicked to 1-beta-D-lactopyranosyl azide
B8: 12Ser (structured_DNA)
DNA: GGTTGGTGTGGTTGG
modifications: T12: N3-carboxymethyl-dT amide with L-serine
B9: 12Amide (structured_DNA)
DNA: GGTTGGTGTGGTTGG
modifications: T12: N3-carboxymethyl-dT amide
B10: 12Trp (structured_DNA)
DNA: GGTTGGTGTGGTTGG
modifications: T12: N3-carboxymethyl-dT amide with L-tryptophan
B11: 3Amide (structured_DNA)
DNA: GGTTGGTGTGGTTGG
modifications: T3: N3-carboxymethyl-dT amide
B12: 3NB (structured_DNA)
DNA: GGTTGGTGTGGTTGG
modifications: T3: N3-aminoalkyl-dT p-nitrobenzoyl amide
B13: 3Bz (structured_DNA)
DNA: GGTTGGTGTGGTTGG
modifications: T3: N3-aminoalkyl-dT benzoyl amide
B14: 12Phe (structured_DNA)
DNA: GGTTGGTGTGGTTGG
modifications: T12: N3-carboxymethyl-dT amide with L-phenylalanine
B15: 3Phe (structured_DNA)
DNA: GGTTGGTGTGGTTGG
modifications: T3: N3-carboxymethyl-dT amide with L-phenylalanine
B16: 3G (structured_DNA)
DNA: GGTTGGTGTGGTTGG
modifications: T3: N3-propargyl-dT clicked to 1-beta-D-glucopyranosyl azide (printed glycopyranosyl)
B17: 3Ala (structured_DNA)
DNA: GGTTGGTGTGGTTGG
modifications: T3: N3-carboxymethyl-dT amide with L-alanine
B18: 12Ala (structured_DNA)
DNA: GGTTGGTGTGGTTGG
modifications: T12: N3-carboxymethyl-dT amide with L-alanine
B19: 12Leu (structured_DNA)
DNA: GGTTGGTGTGGTTGG
modifications: T12: N3-carboxymethyl-dT amide with L-leucine

Target: human alpha-thrombin (plasma) (Homo sapiens, UniProt P00734;P00734 328-363;364-622)
Experiment: MST

| Binder | Kd |
| --- | --- |
| B1 | 10.9 ± 0.2 nM |
| B2 | 20.2 ± 1.3 nM |
| B3 | 27.1 ± 4.2 nM |
| B4 | 14.6 ± 0.3 nM |
| B5 | 20.7 ± 2.8 nM |
| B6 | 27.2 ± 3 nM |
| B7 | 11.6 ± 0.5 nM |
| B8 | 86.6 ± 4.5 nM |
| B9 | 30.6 ± 6.1 nM |
| B10 | 67.3 ± 12.1 nM |
| B11 | 29.2 ± 0.4 nM |
| B12 | 164 ± 3.5 nM |
| B13 | 30 ± 6.6 nM |
| B14 | 99.1 ± 6.3 nM |
| B15 | 22.6 ± 4.8 nM |
| B16 | 9.8 ± 0.6 nM |
| B17 | 21.4 ± 2.8 nM |
| B18 | 51 ± 3.8 nM |
| B19 | 72.2 ± 0.9 nM |
